T1: human FcγRIIb receptor protein (R&D Systems) (human, UniProt P31994 46-217)
T1 construct: Analyte injected over antibodies captured on a protein A/G chip (Biacore); also called CD32b
T1 sequence (looked up): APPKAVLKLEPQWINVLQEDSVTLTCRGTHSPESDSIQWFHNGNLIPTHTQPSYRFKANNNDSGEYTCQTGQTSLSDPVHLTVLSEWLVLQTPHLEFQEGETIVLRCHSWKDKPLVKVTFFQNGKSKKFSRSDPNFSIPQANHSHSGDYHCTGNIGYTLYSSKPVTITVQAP

B1: K326D/L328Y/I332E (antibody, human IgG1, kappa)
heavy: EVQLVESGGGLVKPGGSLKLSCAASGYTFTSYVMHWVRQAPGKGLEWIGYINPYNDGTKYNEKFQGRVTISSDKSISTAYMELSSLRSEDTAMYYCARGTYYYGTRVFDYWGQGTLVTVSSASTKGPSVFPLAPSSKSTSGGTAALGCLVKDYFPEPVTVSWNSGALTSGVHTFPAVLQSSGLYSLSSVVTVPSSSLGTQTYICNVNHKPSNTKVDKKVEPKSCDKTHTCPPCPAPELLGGPSVFLFPPKPKDTLMISRTPEVTCVVVDVSHEDPEVKFNWYVDGVEVHNAKTKPREEQYNSTYRVVSVLTVLHQDWLNGKEYKCKVSNDAYPAPEEKTISKAKGQPREPQVYTLPPSREEMTKNQVSLTCLVKGFYPSDIAVEWESNGQPENNYKTTPPVLDSDGSFFLYSKLTVDKSRWQQGNVFSCSVMHEALHNHYTQKSLSLSPGK
light: DIVMTQSPATLSLSPGERATLSCRSSKSLQNVNGNTYLYWFQQKPGQSPQLLIYRMSNLNSGVPDRFSGSGSGTEFTLTISSLEPEDFAVYYCMQHLEYPITFGAGTKLEIKRTVAAPSVFIFPPSDEQLKSGTASVVCLLNNFYPREAKVQWKVDNALQSGNSQESVTEQDSKDSTYSLSSTLTLSKADYEKHKVYACEVTHQGLSSPVTKSFNRGEC
notes: HuAM4G7 IgG1 Fc variant
B2: K326W (antibody, human IgG1, kappa)
heavy: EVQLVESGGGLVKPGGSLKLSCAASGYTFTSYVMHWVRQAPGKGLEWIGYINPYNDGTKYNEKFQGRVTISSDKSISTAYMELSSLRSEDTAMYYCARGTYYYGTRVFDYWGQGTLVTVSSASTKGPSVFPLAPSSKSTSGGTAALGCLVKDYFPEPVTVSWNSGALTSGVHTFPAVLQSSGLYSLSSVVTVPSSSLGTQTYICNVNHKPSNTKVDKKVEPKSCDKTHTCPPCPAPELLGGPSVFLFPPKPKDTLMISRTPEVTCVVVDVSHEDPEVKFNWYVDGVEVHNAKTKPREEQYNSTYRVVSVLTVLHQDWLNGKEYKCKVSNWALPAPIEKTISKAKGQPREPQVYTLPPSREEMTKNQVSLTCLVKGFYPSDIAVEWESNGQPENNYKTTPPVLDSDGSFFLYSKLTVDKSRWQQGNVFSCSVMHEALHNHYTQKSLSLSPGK
light: DIVMTQSPATLSLSPGERATLSCRSSKSLQNVNGNTYLYWFQQKPGQSPQLLIYRMSNLNSGVPDRFSGSGSGTEFTLTISSLEPEDFAVYYCMQHLEYPITFGAGTKLEIKRTVAAPSVFIFPPSDEQLKSGTASVVCLLNNFYPREAKVQWKVDNALQSGNSQESVTEQDSKDSTYSLSSTLTLSKADYEKHKVYACEVTHQGLSSPVTKSFNRGEC
notes: HuAM4G7 IgG1 Fc variant
B3: L235D/S239D (antibody, human IgG1, kappa)
heavy: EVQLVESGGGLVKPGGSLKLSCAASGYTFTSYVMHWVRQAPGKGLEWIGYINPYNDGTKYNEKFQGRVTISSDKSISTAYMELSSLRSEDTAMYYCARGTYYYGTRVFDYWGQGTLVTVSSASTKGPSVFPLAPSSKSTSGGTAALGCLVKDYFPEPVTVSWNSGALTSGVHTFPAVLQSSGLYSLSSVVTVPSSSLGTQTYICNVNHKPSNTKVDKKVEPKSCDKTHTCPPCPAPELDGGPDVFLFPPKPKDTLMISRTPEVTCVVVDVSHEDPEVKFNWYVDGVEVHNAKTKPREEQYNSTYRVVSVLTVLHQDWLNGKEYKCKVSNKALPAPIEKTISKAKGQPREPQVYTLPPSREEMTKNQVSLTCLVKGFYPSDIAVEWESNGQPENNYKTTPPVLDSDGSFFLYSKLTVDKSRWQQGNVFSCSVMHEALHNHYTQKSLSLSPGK
light: DIVMTQSPATLSLSPGERATLSCRSSKSLQNVNGNTYLYWFQQKPGQSPQLLIYRMSNLNSGVPDRFSGSGSGTEFTLTISSLEPEDFAVYYCMQHLEYPITFGAGTKLEIKRTVAAPSVFIFPPSDEQLKSGTASVVCLLNNFYPREAKVQWKVDNALQSGNSQESVTEQDSKDSTYSLSSTLTLSKADYEKHKVYACEVTHQGLSSPVTKSFNRGEC
notes: HuAM4G7 IgG1 Fc variant
B4: L234E/H268D (antibody, human IgG1, kappa)
heavy: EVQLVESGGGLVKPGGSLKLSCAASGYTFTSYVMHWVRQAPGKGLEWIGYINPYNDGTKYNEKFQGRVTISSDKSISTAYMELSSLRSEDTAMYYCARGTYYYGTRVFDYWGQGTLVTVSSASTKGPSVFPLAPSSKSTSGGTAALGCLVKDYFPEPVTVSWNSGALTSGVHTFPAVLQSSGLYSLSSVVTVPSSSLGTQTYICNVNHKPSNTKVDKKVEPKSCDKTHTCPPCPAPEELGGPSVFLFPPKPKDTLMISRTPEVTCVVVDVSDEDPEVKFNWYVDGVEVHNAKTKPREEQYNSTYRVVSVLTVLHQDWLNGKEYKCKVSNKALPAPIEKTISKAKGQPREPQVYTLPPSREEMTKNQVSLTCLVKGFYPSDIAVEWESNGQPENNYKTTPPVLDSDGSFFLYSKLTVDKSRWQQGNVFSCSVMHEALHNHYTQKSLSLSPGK
light: DIVMTQSPATLSLSPGERATLSCRSSKSLQNVNGNTYLYWFQQKPGQSPQLLIYRMSNLNSGVPDRFSGSGSGTEFTLTISSLEPEDFAVYYCMQHLEYPITFGAGTKLEIKRTVAAPSVFIFPPSDEQLKSGTASVVCLLNNFYPREAKVQWKVDNALQSGNSQESVTEQDSKDSTYSLSSTLTLSKADYEKHKVYACEVTHQGLSSPVTKSFNRGEC
notes: HuAM4G7 IgG1 Fc variant
B5: K326E (antibody, human IgG1, kappa)
heavy: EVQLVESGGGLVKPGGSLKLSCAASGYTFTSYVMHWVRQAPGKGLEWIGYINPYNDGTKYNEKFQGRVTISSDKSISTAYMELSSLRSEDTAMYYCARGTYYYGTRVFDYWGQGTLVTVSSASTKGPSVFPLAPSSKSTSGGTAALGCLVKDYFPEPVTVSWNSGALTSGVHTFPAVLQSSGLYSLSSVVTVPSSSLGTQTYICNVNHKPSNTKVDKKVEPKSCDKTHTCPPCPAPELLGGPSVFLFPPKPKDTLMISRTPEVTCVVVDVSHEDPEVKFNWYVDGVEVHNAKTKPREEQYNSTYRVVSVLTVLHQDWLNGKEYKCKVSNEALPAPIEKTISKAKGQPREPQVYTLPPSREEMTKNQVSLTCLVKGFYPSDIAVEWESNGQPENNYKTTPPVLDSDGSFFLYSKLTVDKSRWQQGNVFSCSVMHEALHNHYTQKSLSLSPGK
light: DIVMTQSPATLSLSPGERATLSCRSSKSLQNVNGNTYLYWFQQKPGQSPQLLIYRMSNLNSGVPDRFSGSGSGTEFTLTISSLEPEDFAVYYCMQHLEYPITFGAGTKLEIKRTVAAPSVFIFPPSDEQLKSGTASVVCLLNNFYPREAKVQWKVDNALQSGNSQESVTEQDSKDSTYSLSSTLTLSKADYEKHKVYACEVTHQGLSSPVTKSFNRGEC
notes: HuAM4G7 IgG1 Fc variant
B6: L234F/G236N (antibody, human IgG1, kappa)
heavy: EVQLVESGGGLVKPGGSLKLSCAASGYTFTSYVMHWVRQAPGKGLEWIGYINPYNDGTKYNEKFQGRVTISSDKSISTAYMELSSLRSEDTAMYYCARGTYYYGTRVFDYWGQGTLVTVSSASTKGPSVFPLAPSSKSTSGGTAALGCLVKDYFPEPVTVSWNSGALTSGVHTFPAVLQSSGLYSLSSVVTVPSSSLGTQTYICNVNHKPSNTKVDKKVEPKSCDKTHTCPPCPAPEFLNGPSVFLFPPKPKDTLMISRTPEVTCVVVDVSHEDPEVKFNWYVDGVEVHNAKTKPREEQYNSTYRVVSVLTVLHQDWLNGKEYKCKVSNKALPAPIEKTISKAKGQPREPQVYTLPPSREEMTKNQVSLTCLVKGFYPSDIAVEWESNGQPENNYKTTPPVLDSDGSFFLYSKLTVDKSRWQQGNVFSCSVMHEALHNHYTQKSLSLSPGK
light: DIVMTQSPATLSLSPGERATLSCRSSKSLQNVNGNTYLYWFQQKPGQSPQLLIYRMSNLNSGVPDRFSGSGSGTEFTLTISSLEPEDFAVYYCMQHLEYPITFGAGTKLEIKRTVAAPSVFIFPPSDEQLKSGTASVVCLLNNFYPREAKVQWKVDNALQSGNSQESVTEQDSKDSTYSLSSTLTLSKADYEKHKVYACEVTHQGLSSPVTKSFNRGEC
notes: HuAM4G7 IgG1 Fc variant
B7: L235F/H268D/L328Y (antibody, human IgG1, kappa)
heavy: EVQLVESGGGLVKPGGSLKLSCAASGYTFTSYVMHWVRQAPGKGLEWIGYINPYNDGTKYNEKFQGRVTISSDKSISTAYMELSSLRSEDTAMYYCARGTYYYGTRVFDYWGQGTLVTVSSASTKGPSVFPLAPSSKSTSGGTAALGCLVKDYFPEPVTVSWNSGALTSGVHTFPAVLQSSGLYSLSSVVTVPSSSLGTQTYICNVNHKPSNTKVDKKVEPKSCDKTHTCPPCPAPELFGGPSVFLFPPKPKDTLMISRTPEVTCVVVDVSDEDPEVKFNWYVDGVEVHNAKTKPREEQYNSTYRVVSVLTVLHQDWLNGKEYKCKVSNKAYPAPIEKTISKAKGQPREPQVYTLPPSREEMTKNQVSLTCLVKGFYPSDIAVEWESNGQPENNYKTTPPVLDSDGSFFLYSKLTVDKSRWQQGNVFSCSVMHEALHNHYTQKSLSLSPGK
light: DIVMTQSPATLSLSPGERATLSCRSSKSLQNVNGNTYLYWFQQKPGQSPQLLIYRMSNLNSGVPDRFSGSGSGTEFTLTISSLEPEDFAVYYCMQHLEYPITFGAGTKLEIKRTVAAPSVFIFPPSDEQLKSGTASVVCLLNNFYPREAKVQWKVDNALQSGNSQESVTEQDSKDSTYSLSSTLTLSKADYEKHKVYACEVTHQGLSSPVTKSFNRGEC
notes: HuAM4G7 IgG1 Fc variant
B8: L235F/L328Y/I332E (antibody, human IgG1, kappa)
heavy: EVQLVESGGGLVKPGGSLKLSCAASGYTFTSYVMHWVRQAPGKGLEWIGYINPYNDGTKYNEKFQGRVTISSDKSISTAYMELSSLRSEDTAMYYCARGTYYYGTRVFDYWGQGTLVTVSSASTKGPSVFPLAPSSKSTSGGTAALGCLVKDYFPEPVTVSWNSGALTSGVHTFPAVLQSSGLYSLSSVVTVPSSSLGTQTYICNVNHKPSNTKVDKKVEPKSCDKTHTCPPCPAPELFGGPSVFLFPPKPKDTLMISRTPEVTCVVVDVSHEDPEVKFNWYVDGVEVHNAKTKPREEQYNSTYRVVSVLTVLHQDWLNGKEYKCKVSNKAYPAPEEKTISKAKGQPREPQVYTLPPSREEMTKNQVSLTCLVKGFYPSDIAVEWESNGQPENNYKTTPPVLDSDGSFFLYSKLTVDKSRWQQGNVFSCSVMHEALHNHYTQKSLSLSPGK
light: DIVMTQSPATLSLSPGERATLSCRSSKSLQNVNGNTYLYWFQQKPGQSPQLLIYRMSNLNSGVPDRFSGSGSGTEFTLTISSLEPEDFAVYYCMQHLEYPITFGAGTKLEIKRTVAAPSVFIFPPSDEQLKSGTASVVCLLNNFYPREAKVQWKVDNALQSGNSQESVTEQDSKDSTYSLSSTLTLSKADYEKHKVYACEVTHQGLSSPVTKSFNRGEC
notes: HuAM4G7 IgG1 Fc variant
B9: L234W/H268D/L328Y (antibody, human IgG1, kappa)
heavy: EVQLVESGGGLVKPGGSLKLSCAASGYTFTSYVMHWVRQAPGKGLEWIGYINPYNDGTKYNEKFQGRVTISSDKSISTAYMELSSLRSEDTAMYYCARGTYYYGTRVFDYWGQGTLVTVSSASTKGPSVFPLAPSSKSTSGGTAALGCLVKDYFPEPVTVSWNSGALTSGVHTFPAVLQSSGLYSLSSVVTVPSSSLGTQTYICNVNHKPSNTKVDKKVEPKSCDKTHTCPPCPAPEWLGGPSVFLFPPKPKDTLMISRTPEVTCVVVDVSDEDPEVKFNWYVDGVEVHNAKTKPREEQYNSTYRVVSVLTVLHQDWLNGKEYKCKVSNKAYPAPIEKTISKAKGQPREPQVYTLPPSREEMTKNQVSLTCLVKGFYPSDIAVEWESNGQPENNYKTTPPVLDSDGSFFLYSKLTVDKSRWQQGNVFSCSVMHEALHNHYTQKSLSLSPGK
light: DIVMTQSPATLSLSPGERATLSCRSSKSLQNVNGNTYLYWFQQKPGQSPQLLIYRMSNLNSGVPDRFSGSGSGTEFTLTISSLEPEDFAVYYCMQHLEYPITFGAGTKLEIKRTVAAPSVFIFPPSDEQLKSGTASVVCLLNNFYPREAKVQWKVDNALQSGNSQESVTEQDSKDSTYSLSSTLTLSKADYEKHKVYACEVTHQGLSSPVTKSFNRGEC
notes: HuAM4G7 IgG1 Fc variant
B10: L234W/S239D/L328Y (antibody, human IgG1, kappa)
heavy: EVQLVESGGGLVKPGGSLKLSCAASGYTFTSYVMHWVRQAPGKGLEWIGYINPYNDGTKYNEKFQGRVTISSDKSISTAYMELSSLRSEDTAMYYCARGTYYYGTRVFDYWGQGTLVTVSSASTKGPSVFPLAPSSKSTSGGTAALGCLVKDYFPEPVTVSWNSGALTSGVHTFPAVLQSSGLYSLSSVVTVPSSSLGTQTYICNVNHKPSNTKVDKKVEPKSCDKTHTCPPCPAPEWLGGPDVFLFPPKPKDTLMISRTPEVTCVVVDVSHEDPEVKFNWYVDGVEVHNAKTKPREEQYNSTYRVVSVLTVLHQDWLNGKEYKCKVSNKAYPAPIEKTISKAKGQPREPQVYTLPPSREEMTKNQVSLTCLVKGFYPSDIAVEWESNGQPENNYKTTPPVLDSDGSFFLYSKLTVDKSRWQQGNVFSCSVMHEALHNHYTQKSLSLSPGK
light: DIVMTQSPATLSLSPGERATLSCRSSKSLQNVNGNTYLYWFQQKPGQSPQLLIYRMSNLNSGVPDRFSGSGSGTEFTLTISSLEPEDFAVYYCMQHLEYPITFGAGTKLEIKRTVAAPSVFIFPPSDEQLKSGTASVVCLLNNFYPREAKVQWKVDNALQSGNSQESVTEQDSKDSTYSLSSTLTLSKADYEKHKVYACEVTHQGLSSPVTKSFNRGEC
notes: HuAM4G7 IgG1 Fc variant
B11: L234W/L328Y/I332E (antibody, human IgG1, kappa)
heavy: EVQLVESGGGLVKPGGSLKLSCAASGYTFTSYVMHWVRQAPGKGLEWIGYINPYNDGTKYNEKFQGRVTISSDKSISTAYMELSSLRSEDTAMYYCARGTYYYGTRVFDYWGQGTLVTVSSASTKGPSVFPLAPSSKSTSGGTAALGCLVKDYFPEPVTVSWNSGALTSGVHTFPAVLQSSGLYSLSSVVTVPSSSLGTQTYICNVNHKPSNTKVDKKVEPKSCDKTHTCPPCPAPEWLGGPSVFLFPPKPKDTLMISRTPEVTCVVVDVSHEDPEVKFNWYVDGVEVHNAKTKPREEQYNSTYRVVSVLTVLHQDWLNGKEYKCKVSNKAYPAPEEKTISKAKGQPREPQVYTLPPSREEMTKNQVSLTCLVKGFYPSDIAVEWESNGQPENNYKTTPPVLDSDGSFFLYSKLTVDKSRWQQGNVFSCSVMHEALHNHYTQKSLSLSPGK
light: DIVMTQSPATLSLSPGERATLSCRSSKSLQNVNGNTYLYWFQQKPGQSPQLLIYRMSNLNSGVPDRFSGSGSGTEFTLTISSLEPEDFAVYYCMQHLEYPITFGAGTKLEIKRTVAAPSVFIFPPSDEQLKSGTASVVCLLNNFYPREAKVQWKVDNALQSGNSQESVTEQDSKDSTYSLSSTLTLSKADYEKHKVYACEVTHQGLSSPVTKSFNRGEC
notes: HuAM4G7 IgG1 Fc variant

Target: T1, human FcγRIIb receptor protein (R&D …)
Experiment: SPR (Biacore)
Description: Variants were screened for receptor affinity using Biacore™ technology, also referred to as Biacore herein, a surface plasmon resonance (SPR) based technology for studying biomolecular interactions in real time. SPR measurements were performed using a Biacore 3000 instrument (Biacore, Piscataway, N.J.). A protein A/G (Pierce Biotechnology) CM5 biosensor chip (Biacore) was generated using a standard primary amine coupling protocol. All measurements were performed using HBS-EP buffer (10 mM HEPES pH 7.4, 0.15 M NaCl, 3 mM EDTA, 0.005% vol/vol surfactant P20, Biacore). Antibodies at 20 nM or 50 nM in HBS-EP buffer were immobilized on the protein A/G surface and FcγRs were injected. After each cycle, the surface was regenerated by injecting glycine buffer (10 mM, pH 1.5). Data were processed by zeroing time and response before the injection of FcγR and by subtracting appropriate nonspecific signals (response of reference channel and injection of running buffer). Kinetic analyses were performed by global fitting of binding data with a 1:1 Langmuir binding model using BIAevaluation software (Biacore).

Row | Binder | Fold FcγRIIb | binding result
1 | B1 | 2.65 fold | –
2 | B2 | 3.04 fold | –
3 | B3 | 4.11 fold | –
4 | B4 | 5.89 fold | –
5 | B5 | 6.09 fold | –
6 | B6 | – | no binding
7 | B7 | 3.97 fold | –
8 | B8 | 3.31 fold | –
9 | B9 | 5.92 fold | –
10 | B10 | 32.8 fold | –
11 | B11 | 6.32 fold | –

— patent publication US20170355766A1 (Xencor, published 2017)
